According to patent US7592006 (UNIVERSIT CATHOLIQUE DE LOUVAIN, dated 2009):

T1: human CD2 (human, UniProt P06729 25-351)
T1 construct: whole, on cells; The plasmid is cited from Peterson and Seed, Nature 1987; also called CD2 antigen; wild-type CD2
T1 sequence (looked up): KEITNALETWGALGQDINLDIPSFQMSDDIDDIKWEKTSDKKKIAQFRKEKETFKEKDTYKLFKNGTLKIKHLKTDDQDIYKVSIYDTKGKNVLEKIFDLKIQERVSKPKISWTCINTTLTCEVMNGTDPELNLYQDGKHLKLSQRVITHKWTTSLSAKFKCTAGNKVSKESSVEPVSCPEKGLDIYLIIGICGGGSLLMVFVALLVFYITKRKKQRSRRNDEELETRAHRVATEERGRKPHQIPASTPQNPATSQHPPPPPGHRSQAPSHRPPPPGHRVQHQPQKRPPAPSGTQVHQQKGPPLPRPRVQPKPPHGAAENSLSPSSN

B1: humanized LO-CD2a (antibody, V domains shown)
VH: QVQLVQSGAEVKKPGASVKVSCKASGYTFTEYYMYWVRQAPGQGLELMGRIDPEDGSIDYVEKFKKKVTLTADTSSSTAYMELSSLTSDDTAVYYCARGKFNYRFAYWGQGTLVTVSS
VL: DVVMTQSPPSLLVTLGQPASISCRSSQSLLHSSGNTYLNWLLQRPGQSPQPLIYLVSKLESGVPDRFSGSGSGTDFTLKISGVEAEDVGVYYCMQFTHYPYTFGQGTKLEIK
notes: Variable regions were cloned into the MRC light (human kappa) and heavy (human gamma 1) chain vectors; Expressed in COS cells and purified on Protein A; also called LO-CD2aHu; humanized antibody

Assays:
human CD2 [1] = biological target: T1, human CD2; assay: two color flow cytometry on human PBMC, biotinylated LO-CD2a and Leu-5bPE; upper left quadrant taken as Leu-5b-PE positive, LO-CD2a below the quadrant limit (axes inferred: X = FL1 LO-CD2a, Y = FL2 Leu-5b-PE)
human CD2 [2] = biological target: T1, human CD2; assay: two color flow cytometry on human PBMC, biotinylated LO-CD2a and Leu-5bPE; Y axis (FL2) taken as Leu-5b-PE, inferred
human CD2 [3] = biological target: T1, human CD2; assay: flow cytometry on CD2-expressing Jurkat cells, 0 to 4 µg/ml antibody (FIG. 35)
Description: Transient expression in COS cells and detection of secreted antibody were carried out as described previously for the chimeric antibody. The humanized antibody was purified by affinity chromatography (Protein A). […] The Jurkat cell line, which expresses CD2, was stained with rat LO-CD2a, the humanized LO-CD2a (LO-CD2aHu), or rat IgG2b or human IgG controls. Antibody concentrations ranged from 0 to 4 ig/ml. […] Bound antibodies were detected with an isotype-specific FITC-conjugated antisera. The results shown in FIG. 35 are expressed as the percentage of cells positively stained by the antibodies over the range of concentrations mentioned hereinabove. Functional studies indicate that the humanized antibody is also capable of inhibiting a primary MLR. Nanogram quantities of LO-CD2a, LO-CD2aHu, rat IgG2b control, or human IgG1 control were added to culture wells containing equivalent numbers of human peripheral blood mononuclear cells (PBMC) from a designated responder and stimulator (irradiated cells). Control wells contained no antibody. The cultures were incubated for 5 days, then pulsed overnight with tritiated thymidine. (3HT). Proliferation is detected by the uptake of 3HT. The results, as given in Table 3 below, are expressed as the mean CPM as recorded by a Beta plate reader.

Molecule | % GATED (quadrant 1UL) (human CD2 [1]) | Y MEAN fluorescence (quadrant 1UL) (human CD2 [2]) | Y MEAN fluorescence (quadrant 2UR) (human CD2 [2]) | Y MEAN fluorescence (quadrant 4LR) (human CD2 [2]) | binding result (human CD2 [3])
Leu-5b, mouse anti-human CD2 monoclonal antibody (Becton Dickinson) | 23.2% | 285 | 631 | 6.54 | –
B1 | – | – | – | – | binds
